The experiment has as its target β-amyloid1-42 (UniProt P05067). In words: cell-based or functional assay.

B1: cyclic peptide (Ac)…-amide (peptide)
peptide: Ac-SERFYECCKEP-NH2
modifications: also: cyclic, bridge not given here
In turn, B1 gave an ACh rel % Inh @ 100 µM of 81% and an Inh ACh rel IC50 of 316 nM.

(Values after patent US20030092613A1, “Alpha7 nicotinic receptor peptides as ligands for beta amyloid peptides” (priority 2000, published 2003).)
